Test results from patent US20240408138A1 (UNIVERSITY OF CHICAGO, published 2024).
Residue numbers refer to the chain shown, from its start.

T1: INCENP N-terminal domain (1-58), His- and Avi-tagged, biotinylated (UniProt Q9NQS7 1-58, biotinylated (Avi-tag, co-expressed E. coli biotin ligase BirA))
T1 construct: range 1-58; Expressed in E. coli BL21(DE3); also called INC-N; INCENP N-terminal domain (AA 1-58); not shown: His-tag and Avi-tag
T1 sequence (looked up): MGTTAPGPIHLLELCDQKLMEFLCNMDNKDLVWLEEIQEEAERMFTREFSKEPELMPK

T2: INCENP on the surface of murine tumor cells (Mus musculus, UniProt Q9WU62)
T2 construct: kept apart from m4 because the cells are murine; also called cell surface INCENP on CT26, MC38 and 4T1 cells
T2 sequence (single chain, looked up): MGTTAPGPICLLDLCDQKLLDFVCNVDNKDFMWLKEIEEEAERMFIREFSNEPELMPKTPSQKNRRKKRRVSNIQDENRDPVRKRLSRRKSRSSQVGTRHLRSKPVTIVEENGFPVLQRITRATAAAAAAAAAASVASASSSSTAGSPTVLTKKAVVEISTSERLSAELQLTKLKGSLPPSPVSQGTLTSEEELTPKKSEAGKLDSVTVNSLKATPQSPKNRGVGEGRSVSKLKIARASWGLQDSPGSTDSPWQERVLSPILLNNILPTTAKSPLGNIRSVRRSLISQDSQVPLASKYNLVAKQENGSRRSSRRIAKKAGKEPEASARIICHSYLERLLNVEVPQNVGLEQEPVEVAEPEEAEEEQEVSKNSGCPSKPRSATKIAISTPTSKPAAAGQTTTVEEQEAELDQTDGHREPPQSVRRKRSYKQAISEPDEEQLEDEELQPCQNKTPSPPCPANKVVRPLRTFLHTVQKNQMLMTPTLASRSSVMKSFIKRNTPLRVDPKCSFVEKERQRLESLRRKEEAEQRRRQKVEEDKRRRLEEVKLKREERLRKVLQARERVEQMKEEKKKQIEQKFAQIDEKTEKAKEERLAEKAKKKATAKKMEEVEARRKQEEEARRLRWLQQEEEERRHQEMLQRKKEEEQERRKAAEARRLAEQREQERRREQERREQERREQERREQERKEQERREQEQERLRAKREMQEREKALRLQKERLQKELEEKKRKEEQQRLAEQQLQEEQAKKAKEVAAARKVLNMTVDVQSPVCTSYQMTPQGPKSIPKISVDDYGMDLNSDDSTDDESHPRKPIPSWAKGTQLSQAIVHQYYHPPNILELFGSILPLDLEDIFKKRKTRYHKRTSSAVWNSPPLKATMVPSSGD

B1: INC-N-16 Fab (Fab, V domains shown)
VH: EVQLVESGGGLVQPGGSLRLSCAASGFNFYSSSIHWVRQAPGKGLEWVASIYPYSGYTSYADSVKGRFTISADTSKNTAYLQMNSLRAEDTAVYYCARAWIYAMDYWGQGTLVTVSS
VL: DIQMTQSPSSLSASVGDRVTITCRASQSVSSAVAWYQQKPGKAPKLLIYSASSLYSGVPSRFSGSRSGTDFTLTISSLQPEDFATYYCQQWDQWLITFGQGTKVEIKR
B2: INC-N-38 (Fab, V domains shown)
VH: EVQLVESGGGLVQPGGSLRLSCAASGFNVYSSSIHWVRQAPGKGLEWVAYISSYSGYTYYADSVKGRFTISADTSKNTAYLQMNSLRAEDTAVYYCARTIYSSSYFYTWFIYGAAFDYWGQGTLVTVSS
VL: B1 VL with W91S, D92W, Q93M, W94Y, L95P
notes: also called INC-N-38 Fab
B3: INC-N-04 (Fab, V domains shown)
VH: EVQLVESGGGLVQPGGSLRLSCAASGFNFYSYSIHWVRQAPGKGLEWVASIYSYSGYTYYADSVKGRFTISADTSKNTAYLQMNSLRAEDTAVYYCARYPLYFQYRKYYGIDYWGQGTLVTVSS
VL: B1 VL with W91G, D92W, Q93Y, W94Y, L95P
notes: also called INC-N-04 Fab
B4: INC-N-11 (Fab, V domains shown)
VH: EVQLVESGGGLVQPGGSLRLSCAASGFNVSYYSIHWVRQAPGKGLEWVASIYPSSGSTYYADSVKGRFTISADTSKNTAYLQMNSLRAEDTAVYYCARMYPSWMLYPYYMFAGMDYWGQGTLVTVSS
VL: B1 VL with W91R, D92W, Q93V, W94Y, L95P
notes: also called INC-N-11 Fab
B5: INC-N-06 (Fab, V domains shown)
VH: EVQLVESGGGLVQPGGSLRLSCAASGFNISYSSIHWVRQAPGKGLEWVASIYPYSGSTYYADSVKGRFTISADTSKNTAYLQMNSLRAEDTAVYYCARWSLYGKWYYWWYGLDYWGQGTLVTVSS
VL: B1 VL with W91G, D92S, Q93Y, W94Y, L95P
notes: also called INC-N-06 Fab
B6: INC-N-13 (Fab, V domains shown)
VH: EVQLVESGGGLVQPGGSLRLSCAASGFNVSYYSIHWVRQAPGKGLEWVASIYPYSGSTYYADSVKGRFTISADTSKNTAYLQMNSLRAEDTAVYYCARYPYYVYWYYWWYYALDYWGQGTLVTVSS
VL: B1 VL with W91S, D92W, Q93S, W94Y, L95P
notes: also called INC-N-13 Fab
B7: INC-N-34 (Fab, V domains shown)
VH: EVQLVESGGGLVQPGGSLRLSCAASGFNVSSSSIHWVRQAPGKGLEWVASIYPSSGYTSYADSVKGRFTISADTSKNTAYLQMNSLRAEDTAVYYCARKLAYYWGAQWSYSGYKGMDYWGQGTLVTVSS
VL: B1 VL with W91S, D92Y, Q93W, W94Y, L95P
notes: also called INC-N-34 Fab
B8: INC-N-01 (Fab, V domains shown)
VH: EVQLVESGGGLVQPGGSLRLSCAASGFNVYYYSIHWVRQAPGKGLEWVASIYPSSGSTYYADSVKGRFTISADTSKNTAYLQMNSLRAEDTAVYYCARQWLYMLWPMWGLDYWGQGTLVTVSS
VL: B1 VL with W91S, D92Y, Q93Y, L95P
notes: also called INC-N-01 Fab
B9: INC-N-35 (Fab, V domains shown)
VH: EVQLVESGGGLVQPGGSLRLSCAASGFNFYSYSIHWVRQAPGKGLEWVASISSSSGSTSYADSVKGRFTISADTSKNTAYLQMNSLRAEDTAVYYCARHFHNPYSWDYWYGWYTALDYWGQGTLVTVSS
VL: B1 VL with W91S, D92S, Q93S, W94S
notes: also called INC-N-35 Fab
B10: INC-N-14 (Fab, V domains shown)
VH: EVQLVESGGGLVQPGGSLRLSCAASGFNVSSYSIHWVRQAPGKGLEWVASIYPSSGSTYYADSVKGRFTISADTSKNTAYLQMNSLRAEDTAVYYCARKGYGWFYYYIEWYSPYAFDYWGQGTLVTVSS
VL: B1 VL with W91S, D92Y, Q93Y, W94Y, L95P, I96V
notes: light chain shared with INC-N-18; also called INC-N-14 Fab
B11: INC-N-08 (Fab, V domains shown)
VH: EVQLVESGGGLVQPGGSLRLSCAASGFNFSSSSIHWVRQAPGKGLEWVASIYSYYGSTSYADSVKGRFTISADTSKNTAYLQMNSLRAEDTAVYYCARWMYKGYIFYQYFGLDYWGQGTLVTVSS
VL: B1 VL with W91S, D92F, Q93S, W94N
notes: also called INC-N-08 Fab
B12: INC-N-19 (Fab, V domains shown)
VH: EVQLVESGGGLVQPGGSLRLSCAASGFNVYYSYIHWVRQAPGKGLEWVASIYPYSGYTSYADSVKGRFTISADTSKNTAYLQMNSLRAEDTAVYYCARWRWPGLQFGYGMDYWGQGTLVTVSS
VL: B1 VL with W91S, D92Y, Q93W, L95P, I96L
notes: also called INC-N-19 Fab
B13: INC-N-12 (Fab, V domains shown)
VH: EVQLVESGGGLVQPGGSLRLSCAASGFNFSSSSIHWVRQAPGKGLEWVASIYSYSGSTYYADSVKGRFTISADTSKNTAYLQMNSLRAEDTAVYYCARYHWYYYWYWGGVSPAMDYWGQGTLVTVSS
VL: B1 VL with W91M, D92R, Q93Y, W94Y, L95P
notes: also called INC-N-12 Fab

These binders were tested against T1, INCENP N-terminal domain (1-58), His- … (assay: western blot, recombinant INC-N on SDS-PAGE / PVDF, INC-N-16 Fab as primary, anti-human F(ab')2 IgG-HRP secondary).
Procedure: (§1) Membranes were stained with Ponceau S dye to verify correct transfer of the proteins, were briefly washed with ddH2O and blocked with 4% skimmed milk in TBS-T containing 0.05% Tween20 for 30 min. at RT on the shaker. […] Membranes were washed 3 times with TBS-T and incubated with secondary anti-human FAB′2 specific HRP-conjugated IgG (diluted 1:10,000 in blocking buffer) for 45 minutes at RT, shaking. Membranes were washed again 3× with TBS-T, developed with ECL chemiluminescent substrate and visualized with the Biorad imaging instrument (FIG. 11).

| binding result | Binder |
| --- | --- |
| binds | B1 |

Each binder was assayed against T1, INCENP N-terminal domain (1-58), His- … (assay: SPR, target immobilised on NTA chip via His-tag, two-fold Fab dilutions from 100 nM, 1:1 Langmuir fit).
Procedure: The targets were immobilized onto a nitrilotriacetic acid (NTA) sensor chip via His-tag. 2-fold serial dilutions of the Fab were injected following ligand immobilization on the sensor chip. For each kinetic assay at least five dilutions of the Fab were tested. The data were fitted using 1:1 Langmuir Model to obtain the on-rate, off-rate and the affinity (KD) of the Fab-target interaction. (FIG. 3).

| Kd | koff | kon | Binder |
| --- | --- | --- | --- |
| 1.2 nM | 0.0005 s⁻¹ | 420000 M⁻¹ s⁻¹ | B2 |
| 14.8 nM | 0.011 s⁻¹ | 760000 M⁻¹ s⁻¹ | B3 |
| 4.2 nM | 0.0031 s⁻¹ | 740000 M⁻¹ s⁻¹ | B4 |
| 6.3 nM | 0.0049 s⁻¹ | 770000 M⁻¹ s⁻¹ | B5 |
| 20 nM | 0.0029 s⁻¹ | 140000 M⁻¹ s⁻¹ | B6 |

These binders were tested against T3, INCENP displayed on the surface of cancer cells (UniProt Q9NQS7 1-918, limits assumed) (assay: flow cytometry, 200 nM Fab on MCF7 breast cancer cells, anti-human F(ab')2-A647 secondary, MFI).
T3 construct: whole, on cells; The sentence says 'various cancer cell lines'; also called cell surface INCENP
Procedure: (§2) Human or murine tumor cells were trypsinized, washed and resuspended in Flow buffer (1×PBS supplemented with 2% FBS) and added to a 96-well plate (#3799, Costar). 200 nM primary CPC Fab was mixed with 0.5M cells and incubated at 37 C for 20 min. Cells were washed with Flow buffer and stained with anti-human-FAB′2-A647 secondary antibody (#109-605-006, Jackson, 1:200) for 20 min at room temperature and washed again. Samples were analyzed by flow cytometry using CytoFLEX (Beckman Coulter) and mean fluorescence intensity (MFI) data was extracted using the FlowJo software (FIG. 4A-E, FIG. 5). Human peripheral blood mononuclear cells (PBMCs) derived from a single patient were used as a source of healthy human cells. PBMCs were counted, split and spun down 400×g 5 min. Cells were resuspended in Flow buffer (1×PBS supplemented with 2% FBS) and pre-incubated with TruStain FcX (1:20, Biolegend 422302) for 10 min at 37 C, followed by 200 nM primary Fab incubation at 37 for 20 min. Cells were washed twice and stained with secondary antibody (Alexa Fluor 647 AffiniPure Goat Anti-Human IgG, F(ab′)2 fragment specific, #109-605-006, Jackson, 1:200), for 20 min at RT, washed twice and analyzed by using CytoFLEX (Beckman Coulter). Mean fluorescence intensity (MFI) data was extracted using the FlowJo software (FIG. 4F).

| binding result | Binder |
| --- | --- |
| binds | B7 |

The binders below were run against T2, INCENP on the surface of murine tumor … (assay: flow cytometry, 200 nM Fab on CT26 murine colorectal carcinoma cells, anti-human F(ab')2-A647 secondary, MFI [CT26]).
Procedure: as §2

| binding result | Binder |
| --- | --- |
| binds | B5 |

These binders were tested against T4, INCENP FL (Homo sapiens, UniProt Q9NQS7) (assay: western blot, HeLa cell lysate on SDS-PAGE / PVDF, INC-N-16 Fab as primary, anti-human F(ab')2 IgG-HRP secondary).
T4 construct: full length, denatured on SDS-PAGE and blotted; also called full-length INCENP in HeLa cell lysate
Procedure: as §1

| binding result | Binder |
| --- | --- |
| binds | B1 |

These binders were tested against T1, INCENP N-terminal domain (1-58), His- … (assay: single-point protein ELISA, 200 nM Fab on 50 nM immobilised biotinylated target, protein L-HRP, A450).
Procedure: To rapidly reconfirm the binding and specificity of the obtained Fabs after reformatting into the expression vectors single-point Fab ELISA was performed (FIG. 2). Briefly, 50 nM Avi-tagged targets were immobilized on the prepared NAV-coated and blocked with 0.5% BSA in PBS 96-well ELISA plates. The target coated plates were washed with appropriate buffer (TBST or PBST) and were incubated with 200 nM Fab for 20 minutes and then washed. The washed plates were incubated with protein L conjugated with HRP (1:5000 diluted in TBST) for 30 minutes. Plates were washed and the reaction was developed using the TMB chromogenic substrate (Thermofisher) and subsequently quenched with 1M HCl. Absorbance was read at 450 nm on Epoch plate reader.

| binding result | Binder |
| --- | --- |
| binds | B8 |
| binds | B9 |
| binds | B10 |
| binds | B11 |
| binds | B12 |
| binds | B13 |
| binds | B7 |

These binders were tested against T3, INCENP displayed on the surface of … (assay: flow cytometry, 200 nM Fab on MDA-231 breast cancer cells, anti-human F(ab')2-A647 secondary, MFI).
Procedure: as §2

| binding result | Binder |
| --- | --- |
| binds | B9 |
